Patent US7598032B2, “Thermostable DNA polymerases incorporating nucleoside triphosphates labeled with fluorescent dyes” (Roche Molecular Systems, priority 1997, dated 2009)

Key:
[1] = test system: primer annealed to an M13 template; assay: Extension rate assay; format: biochemical; details: for extension rate, Base Pairs/Sec: 75° C
Protocol: The extension rate of G46D F667Y Taq and G46D F667Y E681K Taq were determined using an extension rate assay. In this experiment, the enzymes were used to extend a primer annealed to an M13 template in the presence of [α-^33P]dCTP. The extension reactions were denatured and the products analyzed by denaturing agarose gel electrophoresis.
The assay was performed as previously described (Lawyer et al., 1989, J. Biol. Chem. 264:6427) including the following modifications. The assay mixture was composed so the final concentration was 50 mM Bicine pH 8.3, 25° C., 2.5 mM MgCl2, 1 mM β-mercaptoethanol, 200 μM each of dATP, dGTP and dTTP (Perkin-Elmer), 100 μM dCTP (Perkin-Elmer) containing [α-^33P]dCTP (New England Nuclear, Boston, Mass.). M13 mp18 (Perkin-Elmer) was annealed to primer DG48, (SEQ ID NO: 11), and the equivalent of 0.085 pmoles of the annealed template was added to the assay mixture for each reaction. Forty-five μl of the assay mixture with template DNA was added to each of fourteen 0.5 ml eppendorf tubes. Each tube was preincubated at 75° C. for at least 30 seconds before the start of the polymerase reaction.
Polymerization was initiated in six of the fourteen assay tubes with 5 μl of G46D F667Y Taq DNA polymerase (2.5 units) or G46D F667Y E681K Taq DNA polymerase (1.25 units). Both enzymes were prepared as in Example I and the concentration used represents a predetermined excess amount of enzyme for the amount of substrate in the assay. As a control for the level of background, the remaining negative control was initiated with enzyme dilution buffer rather than polymerase. All reaction tubes were immediately vortexed briefly and incubated at 75° C. Two of the six tubes containing G46D F667Y Taq DNA polymerase were incubated 3 minutes, two for 6 minutes and two for 10 minutes. Similarly, two of the tubes started with G46D F667Y E681K Taq DNA polymerase were incubated for 30 seconds, two for 1 minute and two for 2 minutes. The control tubes were incubated for 3 minutes. The reactions were stopped by addition of 10 μl 60 mM EDTA and stored at 0° C.
For each reaction, a 25 μl aliquot of the 60 μl reaction was diluted with 1 ml 2 mM EDTA, 50 μg/ml sheared salmon sperm DNA as a carrier. The DNA was precipitated with TCA using standard procedures and collected on GF/C filter discs (Whatman). The amount of incorporated [α-^33P]dCMP was determined for each sample.
The remaining 35 μl of each duplicated were combined and the 70 μl sample was ethanol precipitated, dried and resuspended in 50 mM NaOH, 1 mM EDTA. Aliquots were removed from these samples such that an equal number of α-^33P] counts were taken from each. These aliquots were loaded on an 0.9% alkaline agarose gel, electrophoresed, dried and autoradiographed as previously described (Maniatis et al., 1982, In Molecular Cloning: A Laboratory Manual, Cold Spring Harbor Laboratory, Cold Spring Harbor, N.Y.) Bacteriophage lambda DNA cut with restriction enzyme HindIII (BRL) and 5′ end-labeled with [^32P] was used as a molecular weight standard.
The length in base pairs of the extension product in each sample was determined by comparison of the migration distance of each sample with the distance migrated by the lambda DNA size standard. The number of base pairs in each product was divided by the number of seconds each extension reaction incubated to give the extension rate as shown below.

[2] = dye-terminator dideoxy-sequencing using rhodamine-labeled terminators; format: biochemical

B1: G46D F667Y E681K Taq: thermostable Taq DNA polymerase with G46D, F667Y and E681K mutations, encoded by plasmid pLK113 (protein, UniProt P19821 1-832, looked up, variant G46D F667Y E681K)
DNA polymerase I, thermostable: MRGMLPLFEPKGRVLLVDGHHLAYRTFHALKGLTTSRGEPVQAVYDFAKSLLKALKEDGDAVIVVFDAKAPSFRHEAYGGYKAGRAPTPEDFPRQLALIKELVDLLGLARLEVPGYEADDVLASLAKKAEKEGYEVRILTADKDLYQLLSDRIHVLHPEGYLITPAWLWEKYGLRPDQWADYRALTGDESDNLPGVKGIGEKTARKLLEEWGSLEALLKNLDRLKPAIREKILAHMDDLKLSWDLAKVRTDLPLEVDFAKRREPDRERLRAFLERLEFGSLLHEFGLLESPKALEEAPWPPPEGAFVGFVLSRKEPMWADLLALAAARGGRVHRAPEPYKALRDLKEARGLLAKDLSVLALREGLGLPPGDDPMLLAYLLDPSNTTPEGVARRYGGEWTEEAGERAALSERLFANLWGRLEGEERLLWLYREVERPLSAVLAHMEATGVRLDVAYLRALSLEVAEEIARLEAEVFRLAGHPFNLNSRDQLERVLFDELGLPAIGKTEKTGKRSTSAAVLEALREAHPIVEKILQYRELTKLKSTYIDPLPDLIHPRTGRLHTRFNQTATATGRLSSSDPNLQNIPVRTPLGQRIRRAFIAEEGWLLVALDYSQIELRVLAHLSGDENLIRVFQEGRDIHTETASWMFGVPREAVDPLMRRAAKTINYGVLYGMSAHRLSQKLAIPYEEAQAFIERYFQSFPKVRAWIEKTLEEGRRRGYVETLFGRRRYVPDLEARVKSVREAAERMAFNMPVQGTAADLMKLAMVKLFPRLEEMGARMLLQVHDELVLEAPKERAEAVARLAKEVMEGVYPLAVPLEVEVGIGEDWLSAKE
Question: For B1, which “extension rate, Base Pairs/Sec” value ([1]; Time 30 sec.) is on record?
Answer: 36.7 Base Pairs/Sec

Question: And the “extension rate, Base Pairs/Sec” value ([1]; Time 1 min.)?
Answer: 41.7 Base Pairs/Sec

Question: And the “extension rate, Base Pairs/Sec” value ([1]; Time 2 min)?
Answer: 52.9 Base Pairs/Sec

Question: What about the “extension rate (in words)” value ([1]; relative to an enzyme with the F667Y mutation alone) of the same molecule?
Answer: significantly increased extension rate

Question: And the “peak heights in dye-terminator dideoxy-sequencing” value [2]?
Answer: more uniform peak heights
